Experimental data as given in US20130209454A1 (CALIFORNIA INSTITUTE OF TECHNOLOGY, published 2013).

Legend:
Experiment in all cases: cell-based or functional assay
[1] = target: HIV-1 Env of strain 703357.C02 (HIV-1)
[2] = target: HIV-1 Env of strain 6811.v7.c18 (HIV-1)
[3] = target: HIV-1 Env of strain 1006_11_C3_1601 (HIV-1)
[4] = target: HIV-1 Env of strain T278-50 (HIV-1)
[5] = target: HIV-1 Env of strain HIV-16845-2.22 (HIV-1)
[6] = target: HIV-1 Env of strain 928-28 (HIV-1)
[7] = target: HIV-1 Env of strain 6540.v4.cl (HIV-1)
[8] = target: HIV-1 Env of strain 1054_07_TC4_1499 (HIV-1)
[9] = target: HIV-1 Env of strain 211-9 (HIV-1)
[10] = target: HIV-1 Env of strain Q259.d2.17 (HIV-1)
[11] = target: HIV-1 Env of strain C2101.c01 (HIV-1)
[12] = target: HIV-1 Env of strain T255-34 (HIV-1)
[13] = target: HIV-1 Env of strain CNE20 (HIV-1)
[14] = target: HIV-1 Env of strain CAP45.2.00.G3 (HIV-1)
[15] = target: HIV-1 Env of strain 3718.v3.c11 (HIV-1)
[16] = target: HIV-1 Env of strain 6535.3 (HIV-1)
[17] = target: HIV-1 Env of strain Q461.e2 (HIV-1)
[18] = target: HIV-1 Env of strain 62357_14_D3_4589 (HIV-1)
[19] = target: HIV-1 Env of strain Ce2060_G9 (HIV-1)
[20] = target: HIV-1 Env of strain 1056_10_TA11_1826 (HIV-1)
[21] = target: HIV-1 Env of strain X1254_c3 (HIV-1)
[22] = target: HIV-1 Env of strain Du156.12 (HIV-1)
[23] = target: HIV-1 Env of strain 6480.v4.c25 (HIV-1)
[24] = target: HIV-1 Env of strain WITO4160.33 (HIV-1)
[25] = target: HIV-1 Env of strain 3415.v1.c1 (HIV-1)
[26] = target: HIV-1 Env of strain P0402_c2_11 (HIV-1)
[27] = target: HIV-1 Env of strain 0815.v3.c3 (HIV-1)
[28] = target: HIV-1 Env of strain TRO.11 (HIV-1)
[29] = target: HIV-1 Env of strain 3301.v1.c24 (HIV-1)
[30] = target: HIV-1 Env of strain THRO4156.18 (HIV-1)
[31] = target: HIV-1 Env of strain 0330.v4.c3 (HIV-1)
[32] = target: HIV-1 Env of strain Q769.d22 (HIV-1)
[33] = target: HIV-1 Env of strain QH0692.42 (HIV-1)
[34] = target: HIV-1 Env of strain REJO4541.67 (HIV-1)
[35] = target: HIV-1 Env of strain 89-F1_2_25 (HIV-1)
[36] = target: HIV-1 Env of strain T251-18 (HIV-1)
[37] = target: HIV-1 Env of strain R1166.c01 (HIV-1)
[38] = target: HIV-1 Env of strain 3016.v5.c45 (HIV-1)
[39] = target: HIV-1 Env of strain Q842.d12 (HIV-1)
[40] = target: HIV-1 Env of strain C1080.c03 (HIV-1)
[41] = target: HIV-1 Env of strain X1193_c1 (HIV-1)
[42] = target: HIV-1 Env of strain CAAN5342.A2 (HIV-1)
[43] = target: HIV-1 Env of strain CNE58 (HIV-1)

B1: NIH45-46 IgG (antibody, V domains shown)
VH: QVRLSQSGGQMKKPGESMRLSCRASGYEFLNCPINWIRLAPGRRPEWMGWLKPRGGAVNYARKFQGRVTMTRDVYSDTAFLELRSLTSDDTAVYFCTRGKYCTARDYYNWDFEHWGRGAPVTVSS
VL: EIVLTQSPATLSLSPGETAIISCRTSQSGSLAWYQQRPGQAPRLVIYSGSTRAAGIPDRFSGSRWGADYNLSISNLESGDFGVYYCQQYEFFGQGTKVQVDI
neutralization IC50 [1]: 19.2 µg/mL | neutralization IC50 [2]: 0.035 µg/mL | neutralization IC50 [3]: 0.027 µg/mL | neutralization IC50 [4]: > 50 µg/mL | neutralization IC50 [5]: 5 µg/mL | neutralization IC50 [6]: 0.23 µg/mL | neutralization IC50 [7]: > 50 µg/mL | neutralization IC50 [8]: 0.113 µg/mL | neutralization IC50 [9]: > 50 µg/mL | neutralization IC50 [10]: 0.043 µg/mL | neutralization IC50 [11]: 4.24 µg/mL | neutralization IC50 [12]: 0.71 µg/mL | neutralization IC50 [13]: 7.83 µg/mL | neutralization IC50 [14]: > 50 µg/mL | neutralization IC50 [15]: 19.6 µg/mL | neutralization IC50 [16]: 0.23 µg/mL | neutralization IC50 [17]: 0.076 µg/mL | neutralization IC50 [18]: 0.06 µg/mL | neutralization IC50 [19]: 0.058 µg/mL | neutralization IC50 [20]: 0.094 µg/mL | neutralization IC50 [21]: 0.032 µg/mL | neutralization IC50 [22]: 0.02 µg/mL | neutralization IC50 [23]: 0.032 µg/mL | neutralization IC50 [24]: 0.06 µg/mL | neutralization IC50 [25]: 0.022 µg/mL | neutralization IC50 [26]: 0.073 µg/mL | neutralization IC50 [27]: 0.014 µg/mL | neutralization IC50 [28]: 1.61 µg/mL | neutralization IC50 [29]: 0.009 µg/mL | neutralization IC50 [30]: 1.91 µg/mL | neutralization IC50 [31]: 0.09 µg/mL | neutralization IC50 [32]: 0.009 µg/mL | neutralization IC50 [33]: 0.72 µg/mL | neutralization IC50 [34]: 0.014 µg/mL | neutralization IC50 [35]: > 50 µg/mL | neutralization IC50 [36]: 1.35 µg/mL | neutralization IC50 [37]: 0.31 µg/mL | neutralization IC50 [38]: > 50 µg/mL | neutralization IC50 [39]: 0.031 µg/mL | neutralization IC50 [40]: 2.48 µg/mL | neutralization IC50 [41]: 0.021 µg/mL | neutralization IC50 [42]: 0.15 µg/mL | neutralization IC50 [43]: 0.43 µg/mL
